According to patent publication US20260102461A1 (AIKIUM, published 2026):
Read-outs that look alike come from different tables or passages of the source.

Tests used:
[1] = molecular target: T1, KAAG1 disordered region peptide, PGAAAAHLPRWPPPQLAASRREA (biotin (position not given)); experiment: modified sandwich ELISA (scaffold coated, biotinylated peptide, streptavidin-HRP fluorescence)
T1 peptide: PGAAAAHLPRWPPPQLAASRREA

[2] = molecular target: T2, CYSLTR2 N-terminal disordered region, MERKFMSLQPSISVSEMEPNGTFSNNNSRNCTIENFKREFFP (biotin (position not given)); experiment: as above
T2 construct: also called CysLT2; CysLT2r
T2 peptide: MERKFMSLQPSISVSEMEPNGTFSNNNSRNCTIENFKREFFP

[3] = molecular target: T3, CD74 disordered region peptide (CLIP), PPKPVSKMRMATPLLMQALPMGALP (biotin (position not given)); experiment: modified sandwich ELISA, fluorescence grade (key: >400000, Strong binding)
T3 peptide: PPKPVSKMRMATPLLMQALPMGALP

[4] = molecular target: T1, KAAG1 disordered region peptide, …; experiment: modified sandwich ELISA, fluorescence grade (key: 50000 < x < 100000, Weak binding)
[5] = molecular target: T2, CYSLTR2 N-terminal disordered region, …; experiment: ELISA fluorescence at 10,000 nM peptide divided by the no-scaffold control; the control bar is marked 1x
Description: (§1) Binder proteins were coated on the surface of a high binding capacity 96 well plate by incubating 100 μL of protein at […] in a coating solution (10 mM Tris pH 8.8, 50 mM NaCl), overnight at 4 C. The next morning, the coating solution was aspirated out and wells were washed once with 300 μL ELISA wash buffer (lx PBS, 0.05% Tween-20) and solution was aspirated out. The wells were blocked with 200 μL of a blocking buffer (1×PBS, 0.05% Tween-20, 3% BSA) at room temperature for 1 hour. After one hour, the blocking solution was aspirated out and 100 μL of biotinylated polypeptide in a binding buffer (1×PBS, 0.05% Tween-20, 0.5% BSA) at various concentrations was added to the appropriate well and incubated for 20 minutes. Peptide solution was aspirated out after 20 minutes and wells were washed 5 times with 300 μL of ELISA wash buffer. To detect the biotinylated peptide, 100 μL of streptavidin-HRP (50 ng/mL) was added to each well and incubated for 1 hour. The wells were subsequently washed 5 times with 300 μL of ELISA wash buffer. 100 μL of QuantaBlu Fluorogenic Peroxidase substrate solution was added to each well, incubated for 30 minutes and reaction stopped by adding 100 μL of stop solution. Fluorescent signal from each well was measured using a Biotek Cytation5 plate reader by exciting the fluorophore at […] and measuring emission at 420 nm. Fluorescent signals were plotted as a function of polypeptide concentration.

[6] = molecular target: T1, KAAG1 disordered region peptide, …; experiment: ELISA, scaffold coated on the plate, biotinylated peptide titrated, streptavidin-HRP fluorescence
Description: as §1

[7] = molecular target: T3, CD74 disordered region peptide (CLIP), …; experiment: as above
Description: as §1

[8] = molecular target: 25 amino acid epitope of CLIP (CD74); experiment: BLI (Octet), biotinylated peptide on streptavidin tip, scaffold in solution
[9] = molecular target: T4, CYSLTR2 Epitope SISVSEMEPNGTFSNNNSRNC (N-terminally biotinylated); experiment: ELISA, scaffold coated on the plate, biotinylated peptide titrated, streptavidin-HRP fluorescence
T4 peptide: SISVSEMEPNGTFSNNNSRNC

[10] = molecular target: T5, Urotensin-2 receptor (UR-II-R) disordered region, MALTPESPSSFPGLAATGSSVPEPPGGPNATLNSSWASPTEPSSLEDLVATGTI (biotin (position not given)); experiment: modified sandwich ELISA (scaffold coated, biotinylated peptide, streptavidin-HRP fluorescence)
T5 construct: also called Urotensin II R; GPCR2 (Urotensin II)
T5 peptide: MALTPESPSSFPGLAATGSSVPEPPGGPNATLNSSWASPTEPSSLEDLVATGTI

[11] = molecular target: T6, TNFRSF13B disordered region peptide, LPPELRRQRSGEVENNSDNSGRYQ (biotin (position not given)); experiment: ELISA, scaffold coated on the plate, biotinylated peptide titrated, streptavidin-HRP fluorescence
T6 peptide: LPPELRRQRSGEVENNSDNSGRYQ
Description: as §1

[12] = molecular target: T4, CYSLTR2 Epitope SISVSEMEPNGTFSNNNSRNC; experiment: as above
Description: as §1

[13] = molecular target: T7, GMERKFMSLQPSISVSEMEPNGTFSNNNSRNCTIENFKREFFP (biotinylated, position not given); experiment: as above
T7 peptide: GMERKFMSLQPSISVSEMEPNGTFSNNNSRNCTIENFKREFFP
Description: as §1

MERKFMSLQPSISVSEMEPNG = molecular target: T8, MERKFMSLQPSISVSEMEPNG (N-terminal biotin); experiment: as above
T8 construct: First of three overlapping 21-mers of the CYSLTR2 N-terminal disordered region
T8 peptide: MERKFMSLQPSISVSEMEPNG
Description: as §1

[14] = molecular target: T9, KCNA6 Epitope QQQEQQPASGGGGQNGQQAMS (biotin (position not given)); experiment: as above
T9 peptide: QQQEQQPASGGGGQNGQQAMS
Description: as §1

[15] = molecular target: T10, CD40LG Epitope NKEETKKENSFEMQKGDQNPQIAAH (biotin (position not given)); experiment: as above
T10 peptide: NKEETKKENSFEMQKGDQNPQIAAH
Description: as §1

[16] = molecular target: T1, KAAG1 disordered region peptide, …; experiment: modified sandwich ELISA (scaffold coated, biotinylated peptide, streptavidin-HRP fluorescence)
[17] = molecular target: T5, Urotensin-2 receptor (UR-II-R) …; experiment: ELISA, scaffold coated on the plate, biotinylated peptide titrated, streptavidin-HRP fluorescence
Description: as §1, with “Fluorescent signals were plotted as a function of polypeptide concentration.” left out

[18] = molecular target: T2, CYSLTR2 N-terminal disordered region, …; experiment: modified sandwich ELISA (FIGS. 30A and 30B)
Description: as §1, with “Fluorescent signals were plotted as a function of polypeptide concentration.” left out

[19] = molecular target: T2, CYSLTR2 N-terminal disordered region, …; experiment: modified sandwich ELISA, fluorescence grade (key: 50000 < x < 100000, Weak binding)

B1: S084 (designed binder)
chain: IKEEHVIQQSEYYTNPDQSGEFQFDFDGDEIFHVDMAKKETVWRLEEFGRFASFEAQGALANIAVDKANLEIMTKRSNYTGDTRPRFNWQLKFECHFFNGTERVRLLERCNYNQEESVRFDSDVGEYRAVTELGRPDAEYWNSQKDLLEQRRAAVDTYCRHNYGVGESFTVQRRGGSHHHHHHLE
- binding result [1]: no binding (tested: <5000 (fluorescence signal, key))
- binding result [2]: no binding (tested: <5000 (fluorescence signal, key))
- fluorescent signal [3]: > 400000 fluorescentsignal

B2: S055 (designed binder)
chain: GSHSMRYNYTSVSRPGRGEPRFLSEGHVDDTQFVRFDSDAASPREEPRAPWIEQEGPEYWDRNTQIYKAQAQTDRESLRNLRGYYNQSEAGSHTLQSIYGCDVGPDGRLLRGHDQYYYDGKDYISLNEDLRSWTAADTAAQITQRKWEAAREAEQRRAYLEGECVEWLRRYLENGKDKLERADGGSHHHHHHLE
- fluorescent signal [4]: 50000 to 100000 fluorescentsignal
- fluorescent signal [3]: > 400000 fluorescentsignal

B3: S056 (designed binder)
chain: GSHSMRYNYTSVSRPGRGEPRFLSEGHVDGQPFVRFDSDAASPREEPRAPWIEQEGPEYWDRNTQIYKAQAQTDRESLRNLRGYYNQSEAGLHSLNSIYVCDVGPDGRLLRGHDHYYYDGELYISLNEDLRSWTAADTAAQITQRKWEAAREAEQRRAYLEGECVEWLRRYLENGKDKLERADGGSHHHHHHLE
- fluorescent signal [4]: 50000 to 100000 fluorescentsignal
- fluorescent signal [3]: > 400000 fluorescentsignal

B4: S005 (designed binder)
chain: MIKEEHVIIQAEFYLNPDQSGEFMFDFDGDEIFHVDMAKKETVWRLEEFGRFASFEAQGALANIAVDKANLEIMTKRSNYTPMGDTRPRFLWQLKFECHFFNGTERVRLLERCIYNQEESVRFDSDVGEYRAVTELGRPDAEYWNSQKDLLEQRRAAVDTYCRHNYGVGESFTVQGGSHHHHHHLE
notes: Engineered scaffold derived from MHC II; derived from S007 by removing the immunoglobulin unit; also called v1.1; scaffold v1.1
- Relative Binding [5]: 18.5 x
- Relative Binding (Fold Change) [5]: 18.5 x
- binding result [6]: binds
- EC50 (read off the curve) [7]: ~300 nM
- Kd [8]: 840 nM
- binding result [9]: binds
- binding result [10]: no binding (tested: <5000 (fluorescence signal, key))

B5: S177 (designed binder)
chain: MIKEEHVINQAEYYLNPDQSGEFKFDFDGDEIFHVDMAKKETVWRLEEFGRFASFEAQGALAHIAVDKANLEIMTKRSNYTPMGDTRPRFLWQLKYECHFFNGTERVRLNERCIYNQEESVRFDSDVGEYRAVTELGRPDAEQWNSQKDHLEQRRAAVDTKCRHNYGVGESFTVQGGSHHHHHHLE
notes: Computationally derived from S005; 21.92 kDa
- binding result [11]: no binding (tested: 10000 nM)
- binding result [12]: binds
- binding result [6]: no binding (tested: 10000 nM)
- binding result [13]: binds
- binding result (MERKFMSLQPSISVSEMEPNG): no binding (tested: 10000 nM)
- binding result [14]: no binding (tested: 10000 nM)
- binding result [15]: no binding (tested: 10000 nM)

B6: S098 (designed binder)
chain: PENYLFQGRQECNGTQFLERYIYNREEFVRFDEFRAVGRPDEEYWNSQKDILEEERAVPDRMCRHNYELGGPMTLQRRVQPRVNIKADHVSTYAAFVQRPFMFEFDEDEMFYVDLHLEEFGQAFSFEAQGGLANIAILNNNLNTRSNHTQATNDPPHHHHHHLE
- binding result [10]: no binding (tested: <5000 (fluorescence signal, key))
- binding result [16]: no binding (tested: <5000 (fluorescence signal, key))

B7: S090 (designed binder)
chain: IKEEHSIRQNEMYLNPDQSGLFEFHLDGQPIFRVDMQKKRTKWQLEEFGRFASFEAQGALANIAVDKANLEIMTKRSNQSEAGSHSWQLIFVCEFHEGTESVRLSERCYYNQELSVSFNSDVGEYRAVTELGRPDAEYWNSQKDLLEQRRAAVDTYCRHNYGVGESFTVQRRGGSHHHHHHLE
notes: Rationally designed from v1.1 (S005); By SEC it is a mixture of monomers, dimers and multimers, at least 50% monomer; also called v1.2; scaffold v1.2
- binding result [17]: binds
- Relative Binding [5]: 37.2 x
- Relative Binding (Fold Change) [5]: 37.2 x
- binding result [12]: binds
- binding result [6]: binds
- binding result (MERKFMSLQPSISVSEMEPNG): no binding (tested: 10000 nM)
- EC50 (read off the curve) [7]: ~500 nM
- fold higher affinity compared to a non-specific protein binder [18]: > 65 fold

B8: S078 (designed binder)
chain: GDTRPRFLWQLKFECHFFNGTERVRLLERCIYNQEESVRFDSDVGEYRAVTELGRPDAEYWNSQKDLLEQRRAAVDTYCRHNYGVGESFTVQRRSGGGIKEEHVIIQAEFYLNPDQSGEFMFDFDGDEIFHVDMAKKETVWRLEEFGRFASFEAQGALANIAVDKANLEIMTKRSNYTGGSHHHHHHLE
- fluorescent signal [19]: 50000 to 100000 fluorescentsignal
- binding result [1]: no binding (tested: <5000 (fluorescence signal, key))
- fluorescent signal [3]: > 400000 fluorescentsignal
